Data published in the domain aggregation screens of Martell et al. (2025).

Assay: soluble fraction after stress (log2 fold change); higher = more stays soluble; pooled small domains, quantitative proteomics
Conditions: stress: 50 degC
Method in brief: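 Custom libraries of small protein domains were pooled and measured in a high-throughput format, with quantitative proteomics as the read-out. Each library was stressed at 50°C. The value is the log2 fold change in the amount of each protein that stays soluble after stress, used as a measure of aggregation propensity; higher values mean more of the protein stays soluble.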

Q: With “HMSSKTKVEDLGLSTRTLNALIGGSIKTAGGLTRKSESDLLSLDGLGEKGITEIKEALENIGLSLK” as the sequence, how does the “soluble fraction (log2)” value read?
A: 0.215

Q: For “HMNISLGALVTITDQKGRSHTVTLESGKQFFTNHGSINHDEIIKAGEGGVVASSSGMLYTIFTP”, which “soluble fraction (log2)” value is on record?
A: -0.836

Q: Which “soluble fraction (log2)” value does the source give for “HMRTYYEILGVSKNASLHEIQKAYRELALKYHPKNNSDPTAEEKFTQINEAYTHLSDAARRRSYDDL” here?
A: 0.222

Q: With “HMHQLQLDSRSRLHMTGVIEVESFDEATIVLTTTRGTLIVRGENLHLQLLRLDGGEVLVDGTVDSLSYE” as the sequence, how does the “soluble fraction (log2)” value read?
A: -1.5

Q: With “HMLTLSGPEHAVVRALWPEPELDFDVLIRKTGLPSAQLMTLAMQLEMKKIIRRLPGRRLALMDDIRR” as the sequence, how does the “soluble fraction (log2)” value read?
A: -1.85

Q: Which “soluble fraction (log2)” value does the source give for “HMFIMQTVALGSEGPDVRALQSILNRIGYNAGTVDGIFGSRTRQAVIAFQRNNGLAADGVAGPATWG” here?
A: 0.122

Q: For “HMENYIEQLTAKNSEYIHVVTRELVKIGKSDEEIKAILSDILPQIVAAQDQRVLAKDILGTPSEFTAKYAP”, which “soluble fraction (log2)” value is on record?
A: 0.173

Q: Which “soluble fraction (log2)” value does the source give for “HMTTIKLTQEDVEKIKSLPKRTFLIGNLQQTGLYDEKTRRFYYLDANGEWNGRLAIINTPPPPPPPP” here?
A: 0.199

Q: Which “soluble fraction (log2)” value does the source give for “HMHLKRQEAINLGAYLLGAELRIHRLSLEELGSERIDEMLAAINYKTLDDLLADIGLGNRPARFVARQLG” here?
A: -1.53

Q: With “HMQIMVVDEADRMLDMGFIPDIERIFQLTPFTRQTLFFSATMAPEIERITDTFLHSPERIEVAR” as the sequence, how does the “soluble fraction (log2)” value read?
A: -0.288

Q: For “HMTDLQNDIQAFNLKKMSYQHETKKLEEKRNPEKLEKLEQDIQALYLRIMENPNMRAFDSAKQALYLQIM”, which “soluble fraction (log2)” value is on record?
A: -0.773

Q: With “HMADEIMYPVQVNGKVRAEIFVAADQSKNKELVLEMAKSEERVQKYLEEGNLIKEIFVPGRIVNLVI” as the sequence, how does the “soluble fraction (log2)” value read?
A: 0.0273

Q: With “HMTKYVEGQKYVFEFRDGTITIGTYLRTGEGNIYIKDLSGEDIYIPKIMIAQIHLATDDNVKGDEFWF” as the sequence, how does the “soluble fraction (log2)” value read?
A: -0.353

Q: For “HMQISDVSLIAKVIDDVIDNNVKSVSDYLEGNLNVLRFLVGQVMKETKGKANPQKATELLQEKLESLNN”, which “soluble fraction (log2)” value is on record?
A: -0.429

Q: With “HMGLNVSYRMDGENVVETIIFSGATMIRTVTPTGTMTIKTIENGSTSTAKVNADYSVYKKIYEAQY” as the sequence, how does the “soluble fraction (log2)” value read?
A: -2.59

Q: Which “soluble fraction (log2)” value does the source give for “HMAPPDFTTFMRNYQDMVYSTAVRLIGNETQAEDIAQEVFIKAHAHFENLRTSPSAGGWLKTVATNLSIN” here?
A: -0.997

Q: For “HMETFGEKDLDELIGRNVELITHDGKVREGLVDSVDRYNVSLVRYLDAGEVAMMVRRREVKAVRLK”, which “soluble fraction (log2)” value is on record?
A: 0.0419

Q: With “HMGSYIGEAKAKEIALSHAGVSASQATFVRSQFEYDDGRAVYDVDFWSGNKEYDYEIDAKSGTIVSYDFD” as the sequence, how does the “soluble fraction (log2)” value read?
A: -0.398

Q: Which “soluble fraction (log2)” value does the source give for “HMRTIPDALIGRPYESVETAIVLEGLQAKRTEVFHPTIRPGTVIRLEPTSGSELLRDGVVEIFVSQGPETT” here?
A: -0.159

Q: Which “soluble fraction (log2)” value does the source give for “HMSQQVVTDGVNLRLRYAPSPDAETYKWADGTNRHPEKGERFPYLGDIGDFYRIDYKGLVLYVSKQHTHL” here?
A: -1.85

Q: Which “soluble fraction (log2)” value does the source give for “HMEKEYMKNVVGMEYRQARVLLGDMGLELAFQPVYETSDKYPTDVVVSTEPAADQPLTKGQTVILHIST” here?
A: 0.288

Q: For “HMAQVRSTVERRENGTYTVELNLNDDVDNVMRLQLMVATKEMAEDLAQRFQKNPEQVYSQLVTALYG”, which “soluble fraction (log2)” value is on record?
A: 0.0631

Q: With “HMEFLLAIQPFVLLTDHANLTFLREQTDSMMKRIQINISGFEIEFRYVPGLTNILPDKMSRV” as the sequence, how does the “soluble fraction (log2)” value read?
A: -0.0431

Q: Which “soluble fraction (log2)” value does the source give for “HMNTLLGLSNSFQDNKDLENANSISRRFISYRPRSEAELRIRLLKVFSHEIVLESVAQMYREGLLNDQRF” here?
A: -3.33

Q: For “HMSILPGVYRHYKGNHYQVFYLAKHSETLEDMVVYQALYGERGIWVRPASMWNETVDDQGKQVKRFTYI”, which “soluble fraction (log2)” value is on record?
A: -0.24

Q: Which “soluble fraction (log2)” value does the source give for “HMPMDDETWDALSLFAYKRYARENGWPLMIGAEALRDTFASYFPLDSSTWQDRSSHYLTYQDGIYTRT” here?
A: -0.53

Q: Which “soluble fraction (log2)” value does the source give for “HMQSDQLSDREREILRLIGSGRTNQEISQELQVSGSTVRTHLQHILDKLGLENRNQAVLYAIRIGLAAPP” here?
A: -0.125

Q: With “HMYSIKEFSFEVTTPGQRLDLFLSEELIGQTRSSIQNLILKKYVTVNGQVSKASYKVKTGEFISVKIPV” as the sequence, how does the “soluble fraction (log2)” value read?
A: -3.16

Q: For “HMHPEPDPVLFIDGKEYPYDKLSELDETRVQSMTILPKKSAVKKYGDKYANRSIMEITLKKEN”, which “soluble fraction (log2)” value is on record?
A: 0.0957

Q: For “HMLMLTPGQIAQTLDVSTATVRRWSARYARHLSPNTPGKKRSYTVDDLAVLTRVRDLSATGTPLAQIDQAL”, which “soluble fraction (log2)” value is on record?
A: -2.02
